Results: patent US20250155438A1 (KING ABDULAZIZ UNIVERSITY, published 2025)

Target: T1, SARS-CoV-2 nucleocapsid protein (SARS-CoV-2, UniProt P0DTC9 1-419)
T1 construct: also called NCAP; N-capsid

B1: anti-NCAP-2 nanobody (VHH, not shown: small tags and cut ends)
VHH: QVQLVESGGALMQAGGSLRLSCAVSGIRLGYYTIAWFRQAPGKEREGISCISRSEGSTYYADSVKGRFTISTENAENTVYLQMNSLKPDDTAVYYCAVDFVPASHCAVANTKGYDYWGQGTQVTVSS
notes: also called N Capsid nanobody NCAP-2
  binding result: binds
